Experimental data taken from patent US20040053816A1 (COUNCIL OF SCIENTIFIC AND INDUSTRIAL RESEARCH, published 2004).

Target: insulin receptor (IR) of carp adipocytes (carp Catla catla)
Experiment: cell-based or functional assay

B1: Purified adipocyte insulin (Adplnsl) of the carp Catla catla (ligand)
chain 1: GIVEQCCHKPCSIFELQNYCN
chain 2: PGAPQHLCGSHLVDALYLVCGPTGFFYNPK
glucose uptake by adipocyte: 2 fold
